Data from patent publication US20220193111A1, “Method of Treatment” (The University Court of the University of Edinburgh, priority 2018, published 2022).

How the values were obtained:
3′UTR of SMAD2 = experiment: Luciferase reporter assay, wild-type 3′UTR of SMAD2; format: cell-based, human; conditions: 48 h post-co-transfection, HEK293T cells or HUVECs; mutation of the binding sites restored it
Description: Luciferase assay has been performed as previously described^53. TGFB2 3′-UTR and SMAD2 3′-UTR vectors were cloned in pMIR-Reporter (Life Technology). Primers are used for the cloning are: TGFβ2 3′UTR: Forward 5′-[…]-3′ (SEQ ID NO: 7), Reverse 5′-[…]-3′ (SEQ ID NO: 8); SMAD2 3′UTR: Forward 5′-[…]-3′ (SEQ ID NO: 9), Reverse 5′-[…]-3′ (SEQ ID NO: 10). Primers for 3′UTR mutation: TGFB2: Forward […] (SEQ ID NO: 11) and Reverse […] (SEQ ID NO: 12); SMAD2 Forward […] (SEQ ID NO: 13) and Reverse […] (SEQ ID NO: 14). Luciferase constructs were transfected into HEK293T cells or HUVECs together with miR-148b mimics or p-SV-beta-Gal control vector. Cells were cultured for 48 h and assayed with the Luciferase and β-Galactosidase Reporter Assay Systems (Promega). Luciferase values were normalized to protein concentration and β-galactosidase activity.

[1] = test system: HUVECs treated with TNF-α/IL-1β; experiment: Rescue of TNF-α/IL-1β-induced EndMT in HUVECs; format: cell-based, human; conditions: mimic-transfected HUVECs, TNF-α/IL-1β 6 days
Method: Human umbilical vein ECs (HUVECs; Lonza) were grown in EGM-2 (comprising EBM-2 with growth factors and other supplements) with 2% Foetal Bovine Serum. Confluent HUVECs were treated with 10 ng/ml TNF-α, IL-1β, TGFβ2 (PeproTech); medium and cytokines were changed every two days. SB431542 (Tocris) has been used at the dose of 10 μM. HEK293T cells (ATCC®, CRL-11268) were cultured in D-MEM with 10% FBS (Life Technologies).
Total RNA was extracted using miReasy kit (Qiagen). Real-time quantification to measure miRNAs was performed with the TaqMan miRNA reverse transcription kit and miRNA assay (Life Technology) using Lightcycler 480 (Roche). miRNAs expression was normalized to the U6 […] (snRU6). For mRNA analysis, cDNA was amplified by quantitative real-time PCR (qPCR) and normalized to 18S ribosomal RNA. Each reaction was performed in triplicate. Quantification was performed by the 2^−ΔΔCt method^52. qPCR was used to measure the expression of miR-148b (miR-148b-3p Thermo Fisher Scientific, Cat. #4426961), snRU6 (ThermoFisher Scientific, Cat. #4331182), TGFβ2, SMAD2, CD31, VE-Cadherin, COL1A1, α-SMA, SLUG, VIM, SNAIL, TWIST, ZEB1/2 and 18S rRNA. Primers are pre-designed from Sigma (KiCgStart™ Primers).
Lipofectamine RNAiMAX (Thermo Fisher Scientific) was used to transfect HUVECs with miR-148b mimic, anti-miR-148b and mimic or anti-miR control (25 nM and […], respectively final concentration) or with siRNA targeting SMAD2 (20 nM final concentration), according to the manufacturer's instructions. jetPEI-HUVECs (Polyplus) was used to transfect HUVECs with DNA plasmids. The following functional assays were performed: BrdU incorporation assay using Cell Proliferation colorimetric assay (Roche); Matrigel assay with HUVECs was performed as previously described using BD Matrigel Basement Membrane Matrix (BD Biosciences)^53.
Proteins were extracted from cultured cells or muscles by using ice-cold buffer A (50 mM Hepes, 150 mM NaCl, 1 mM EDTA, 1 mM EGTA, 25 mM NaF, 5 mM NaPPi, 1%Triton, 1% NP40, 1 mM Na3VO4, 0.25% sodium deoxycholate, 0.5 mM Na-orthovanadate, 1 mM benzamidine, 0.1 mM phenylmethylsulfonyl fluoride). Protein concentration was determined using the Bio-Rad Protein Assay Reagent (Bio-Rad Laboratories, UK). Detection of proteins by Western blot analyses was done following separation of whole cell extracts (20 μg) on SDS-polyacrylamide gels. Proteins were transferred to nitrocellulose membranes and probed with the following antibodies: TGFβ2 (Abcam, ab36495, 1:1000), SMAD2 (SantaCruz Biotechnology, Santa Cruz, Calif., USA; #3102, 1:1000), p-SMAD2 (465/467) (Cell Signaling; #3108, 1:1000); CD31 (Abcam., 1:1000), VE-Cadherin (Abcam, ab33168, 1:1000), COL1A1 (Abcam, ab138492, 1:200), FSP-1 (5100A4; Abcam, ab41532, 1:1000), SLUG (Abcam, ab27568, 1:1000), β-actin (Abcam, ab16039, 1:4000), HDAC3 (GeneTex GTX113303, 1:1000) and GAPDH (GeneTex, GT239, 1:1000) (both used as loading control). For detection, the inventors used secondary antibodies conjugated to horseradish peroxidase which were rabbit anti-mouse (Abcam, ab97046, 1:5000) and goat anti-rabbit (Abcam, ab6721, 1:10000). Detection was developed by chemiluminescence reaction (ECL) (Immunoblot, Millipore, 23225).
Cells were fixed using 4% paraformaldehyde in PBS at room temperature for 15 min. For intracellular staining, fixed cells were permeabilized using 0.5% Triton X-100 in PBS (Sigma-Aldrich) or 0.1% Saponin in PBS at room temperature for 10 min. The blocking of […] antibody activity was performed using 3% bovine serum albumin (BSA) in PBS for 1 hour. Samples were incubated with antibodies to CD31 (Abcam, ab28364, 1:50), VE-cadherin (Abcam, ab33168, 1:100), FSP-1 (Abcam, ab41532, 1:200) and COL1A1 (Abcam, ab138492, 1:100) in PBS containing 1% BSA at 4° C. overnight. […]

B1: miR-148b mimic: miR-148b mimic oligonucleotide; in a particular embodiment has SEQ ID NO: 1, the human precursor miR-148b sequence (nucleic acid)
chain: CAAGCACGAUUAGCAUUUGAGGUGAAGUUCUGUUAUACACUCAGGCUGUGGCUCUCUGAAAGUCAGUGCAUCACAGAACUUUGUCUCGAAAGCUUUCUA
modifications: listed as RNA, chemistry not given here
3′UTR of SMAD2
  luciferase activity, 3′-UTR-SMAD2 reporter: decreased luciferase activity
[1]
  CD31 and VE-cadherin, mRNA and protein levels: rescued
  COL1A1 and FSP-1 staining (immunostaining): decrease
  TGFB2, SMAD2, SLUG, FSP-1, COL1A1 (mRNA and protein): decreased
  endothelial markers CD31 and VE-cadherin on ECs membrane (immunostaining): maintenance
  phosphorylation of SMAD2: reduced
